Legend:
[1] = biological target: T1, mPD1 (soluble, ELISA of Examples 20 and 24) (mouse, UniProt Q02242 25-167, limits assumed); experiment: blocking ELISA, mPD1 to mPDL1
T1 construct: also called Biotin-mPD1
T1 sequence (looked up): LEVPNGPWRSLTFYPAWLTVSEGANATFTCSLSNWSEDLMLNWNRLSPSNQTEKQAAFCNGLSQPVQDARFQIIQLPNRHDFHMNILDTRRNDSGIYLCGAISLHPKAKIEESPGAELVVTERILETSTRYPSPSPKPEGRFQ

[2] = biological target: T2, mPD-1-Fc (mouse; human, UniProt Q02242 25-167, limits assumed); experiment: SPR Biacore, mPD1-Fc
T2 construct: domain: IgV domain; not shown: human IgG1 Fc
T2 sequence (looked up): T1 sequence (looked up)

[3] = biological target: T3, hPD1 (soluble, ELISA of Example 20) (human, UniProt Q15116 25-167, limits assumed); experiment: ELISA, hPD1
[4] = biological target: T1, mPD1 (soluble, ELISA of Examples 20 and …); experiment: ELISA, biotin-mPD1 on streptavidin
[5] = biological target: T4, mPD-1-his (mouse, UniProt Q02242 25-167, limits assumed); experiment: SPR Biacore, mPD1-his
T4 construct: domain: IgV domain
T4 sequence: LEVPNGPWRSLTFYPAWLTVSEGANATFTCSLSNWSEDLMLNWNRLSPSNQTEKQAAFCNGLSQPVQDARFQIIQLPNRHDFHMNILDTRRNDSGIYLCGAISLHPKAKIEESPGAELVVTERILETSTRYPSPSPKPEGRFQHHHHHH

[6] = biological target: T1, mPD1 (soluble, ELISA of Examples 20 and …); experiment: ELISA, mPD1
[7] = biological target: T5, hPD-1-Fc (human, UniProt Q15116 25-167); experiment: SPR Biacore, hPD1-Fc
T5 construct: domain: IgV domain; also called human PD-1-Fc; not shown: human IgG1 Fc

[8] = biological target: T6, mouse PD-1 expressed on cells (mouse, UniProt Q02242 25-288); experiment: flow cytometry, mPD1-293 cells
T6 construct: whole, on cells
T6 sequence (looked up): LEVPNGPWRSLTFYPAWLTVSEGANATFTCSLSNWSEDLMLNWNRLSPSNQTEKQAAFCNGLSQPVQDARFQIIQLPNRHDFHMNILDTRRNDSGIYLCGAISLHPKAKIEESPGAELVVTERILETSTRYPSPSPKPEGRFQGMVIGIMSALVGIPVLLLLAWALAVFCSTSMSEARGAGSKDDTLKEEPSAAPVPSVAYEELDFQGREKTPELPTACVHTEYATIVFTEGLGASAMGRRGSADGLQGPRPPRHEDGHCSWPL

[9] = biological target: T3, hPD1 (soluble, ELISA of Example 20); experiment: blocking ELISA, hPD1 to hPDL1
[10] = biological target: T7, human PD-1 expressed on cells (human, UniProt Q15116 25-288); experiment: flow cytometry, hPD1-293 cells
T7 construct: whole, on cells

[11] = biological target: T6, mouse PD-1 expressed on cells; experiment: flow cytometry, mPD1-eff cells
[12] = biological target: T8, hPD-1-his (human, UniProt Q15116 25-167); experiment: SPR Biacore T200, PD-1-his immobilised
T8 construct: domain: IgV domain; monomer in solution; biotin-labelled where captured by streptavidin; also called biotin-hPD-1-his

[13] = biological target: T7, human PD-1 expressed on cells; experiment: flow cytometry, SEB-activated PBMC donor two
[14] = biological target: T8, hPD-1-his; experiment: ELISA, hPD-1-his on anti-his
[15] = biological target: T7, human PD-1 expressed on cells; experiment: flow cytometry, activated PBMC donor FA
[16] = biological target: T5, hPD-1-Fc; experiment: ELISA, hPD1-Fc coated
[17] = biological target: T7, human PD-1 expressed on cells; experiment: cell-based or functional assay
[18] = biological target: T5, hPD-1-Fc; experiment: SPR Biacore T200, PD-1-Fc immobilised
[19] = biological target: T7, human PD-1 expressed on cells; experiment: cell-based or functional assay; remark: listed apart in the source
[20] = biological target: T7, human PD-1 expressed on cells; experiment: flow cytometry, SEB-activated PBMC donor
[21] = biological target: T7, human PD-1 expressed on cells; experiment: flow cytometry, hPD-1-Jurkat cells
[22] = biological target: T7, human PD-1 expressed on cells; experiment: cell-based or functional assay; remark: listed apart in the source
[23] = biological target: T8, hPD-1-his; experiment: SPR, Exp. 2
[24] = biological target: T5, hPD-1-Fc; experiment: ELISA, PD-1-Fc coated
[25] = biological target: T8, hPD-1-his; experiment: ELISA, biotin-hPD-1-his on streptavidin
[26] = biological target: T8, hPD-1-his; experiment: ELISA, biotin-PD-1-his on streptavidin
[27] = biological target: T7, human PD-1 expressed on cells; experiment: flow cytometry, hPD-1-293 cells
[28] = biological target: T8, hPD-1-his; experiment: SPR, Exp. 1
[29] = biological target: T5, hPD-1-Fc; experiment: SPR, Exp. 1
[30] = biological target: T7, human PD-1 expressed on cells; experiment: flow cytometry, hPD1-293 cells; remark: listed apart in the source
[31] = biological target: T8, hPD-1-his; experiment: SPR, Exp. 4
[32] = biological target: T5, hPD-1-Fc; experiment: blocking ELISA, PD-1 to PD-L2
[33] = biological target: T5, hPD-1-Fc; experiment: blocking ELISA, hPD-1-Fc to hPD-L1-Fc
[34] = biological target: T8, hPD-1-his; experiment: ELISA, PD-1-his on anti-his
[35] = biological target: T7, human PD-1 expressed on cells; experiment: flow cytometry, hPD1-Jurkat cells
[36] = biological target: T7, human PD-1 expressed on cells; experiment: flow cytometry, activated PBMC donor two
[37] = biological target: T5, hPD-1-Fc; experiment: SPR, range over experiments
[38] = biological target: T5, hPD-1-Fc; experiment: blocking ELISA, PD-1 to PD-L1
[39] = biological target: T8, hPD-1-his; experiment: SPR, Exp. 3
[40] = biological target: T5, hPD-1-Fc; experiment: SPR, Exp. 3

T5 sequence (Q15116 25-167 limits assumed): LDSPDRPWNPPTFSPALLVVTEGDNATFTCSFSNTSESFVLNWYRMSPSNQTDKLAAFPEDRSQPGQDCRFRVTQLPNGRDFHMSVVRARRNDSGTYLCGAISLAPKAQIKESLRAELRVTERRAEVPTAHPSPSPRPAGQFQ
T8 sequence (Q15116 other isoform, or with tags, fused parts or gaps limits assumed): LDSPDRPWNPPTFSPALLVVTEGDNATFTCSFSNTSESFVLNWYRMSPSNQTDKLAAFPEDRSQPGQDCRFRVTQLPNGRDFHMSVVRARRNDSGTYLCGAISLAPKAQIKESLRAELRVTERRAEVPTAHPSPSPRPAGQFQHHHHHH
T7 sequence (Q15116 25-288): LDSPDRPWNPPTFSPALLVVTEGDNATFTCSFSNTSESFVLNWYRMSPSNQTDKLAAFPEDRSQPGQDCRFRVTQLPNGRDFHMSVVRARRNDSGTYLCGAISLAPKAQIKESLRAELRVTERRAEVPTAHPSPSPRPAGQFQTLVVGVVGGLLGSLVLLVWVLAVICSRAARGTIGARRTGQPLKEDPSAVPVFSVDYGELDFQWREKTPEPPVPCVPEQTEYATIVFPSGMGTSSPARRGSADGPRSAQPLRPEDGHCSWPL
T3 sequence (Q15116 25-167 limits assumed): as the sequence (Q15116 25-167 limits assumed) above

B1: m2A1 (antibody, V domains shown)
VH: QVQLVQSGAEVKKPGASVKVSCKASGHTFTSYYIHWVRQAPGQGLEWMGIINPSGGSTSYAQKFQGRVTMTRDTSTSTVYMELSSLRSEDTAVYYCARDRAYGGAGDYWGQGTLVTVSS
VL: DIQMTQSPSSLSASVGDRVTITCRASRGISSWLAWYQQKPGKAPKLLIYAASSLQSGVPSRFSGSGSGTDFTLTISSLQPEDFATYYCQQSYSPPWTFGQGTKVEIK
notes: R3A9 derivative; also called m2AM (apparent misprint)
IC50 [1]: 0.442 nM | Kd [2]: 2.73 nM | koff [2]: 0.000905 s⁻¹ | kon [2]: 333000 M⁻¹ s⁻¹ | EC50 [3]: 0.146 nM | EC50 [4]: 0.14 nM | Kd [5]: 2.83 nM | koff [5]: 0.00107 s⁻¹ | kon [5]: 375000 M⁻¹ s⁻¹ | EC50 [6]: 0.304 nM | Kd [7]: 1.67 nM | koff [7]: 0.000401 s⁻¹ | kon [7]: 240000 M⁻¹ s⁻¹ | EC50 [8]: 0.433 nM | IC50 [9]: 6.01 nM | EC50 [10]: 0.987 nM | EC50 [11]: 0.253 nM

B2: 31B1 (antibody, V domains shown)
VH: QVQLVQSGAEVKKPGSSVKVSCKASGGTFSSSVISWVRQAPGQGLEWMGGIIPIFGTANYAQKFQGRVTITADESTSTAYMELSSLRSEDTAVYYCAREGLGCSGGSCYSGYYYGMDVWGQGTTVTVSS
VL: DIVMTQSPLSLPVTPGEPASISCRSSQSLLHSNGYNYLDWYLQKPGQSPQLLIYEASSLHSGVPDRFSGSGSGTDFTLKISRVEAEDVGVYYCMQGTHWPYTFGQGTKVEIK
notes: also called 780_38; 33B1 and 31B2 (apparent misprints)
Kd [12]: 6.56 nM | MFI, 5 nM [13]: 67.7 MFI | EC50 [14]: 0.095 nM | OD450 at 10 nM [14]: 0.59 OD450 | EC50 [15]: 0.049 nM | MFI at 25 nM [15]: 18.4 MFI | EC50 [16]: 0.167 nM | OD450 at 10 nM [16]: 0.974 OD450 | EC50, Promega blockade bioassay, Exp. 1 [17]: 0.168 µg/mL | EC50, Promega blockade bioassay, Exp. 2 [17]: 0.172 µg/mL | Fold induction at 12 µg/ml, Exp. 1 [17]: 7.44 fold | Fold induction at 12 µg/ml, Exp. 2 [17]: 8.4 fold | Kd [18]: 0.688 nM | EC50, Promega blockade bioassay [19]: 0.139 µg/mL | Fold induction [19]: 6.48 fold | MFI, 5 nM [20]: 98.5 MFI | MFI, 5 nM [21]: 67 MFI | EC50 averaged from two experiments, Promega blockade bioassay [22]: 0.168 µg/mL | Kd [23]: < 0.01 nM | EC50 [24]: 0.114 nM | EC50 [25]: 0.244 nM | OD450 at 10 nM [25]: 0.953 OD450 | EC50 [26]: 0.104 nM | MFI, 5 nM [27]: 186 MFI | Kd [28]: < 0.036 nM | Kd [29]: < 0.014 nM | EC50 [30]: 0.077 nM | MFI at 5 nM [30]: 46.4 MFI | Kd [31]: < 0.019 nM | IC50 [32]: 3.94 nM | Inhibition, % at 3.7 nM [32]: 41.4% | Inhibition, % at 100 nM [32]: 94.5% | IC50 [33]: 2.15 nM | Inhibition % at 5.6 nM [33]: 90.2% | Inhibition % at 50 nM [33]: 91.4% | EC50 [34]: 0.139 nM | EC50 [35]: 0.084 nM | MFI at 5 nM [35]: 91.6 MFI | EC50 [36]: 0.025 nM | MFI at 25 nM [36]: 17.8 MFI | Kd [37]: 0.01 to 0.02 nM | IC50 [38]: 2.65 nM | Inhibition, % at 5.56 nM [38]: 89.7% | Kd [39]: 0.353 nM | Kd [40]: < 0.01 nM

From US20230416363A1 (KADMON, published 2023)
